Test results reported in US6420518.
Positions of bridges follow the written chain, without caps; N, C: chain ends. Non-standard residues stand in square brackets, D forms with d. No end group written: not given here. 1Nal = N[C@@H](Cc1cccc2ccccc12)C(=O)O; Nle = CCCC[C@H](N)C(=O)O

T1: IGFBP-1 (UniProt P08833 26-259)
T1 construct: in kinetics immobilised on a CM chip by EDC/NHS; biotinylated in the phage selection
T1 sequence (looked up): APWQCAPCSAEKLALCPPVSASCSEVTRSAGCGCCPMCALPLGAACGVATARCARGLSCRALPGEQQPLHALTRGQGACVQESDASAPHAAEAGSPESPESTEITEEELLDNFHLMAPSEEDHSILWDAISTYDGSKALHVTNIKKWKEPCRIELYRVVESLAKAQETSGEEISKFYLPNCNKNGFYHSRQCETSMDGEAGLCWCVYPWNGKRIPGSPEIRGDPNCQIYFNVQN

B1: (i+7)B (peptide)
peptide: Ac-LEWLAEKYEG
modifications: linker 2-9 via 1,5‑diaminopentane
notes: also called locked-helix variant of bp1-01
B2: (i+7)C (peptide)
peptide: Ac-PLEWLAEKYEG
modifications: linker 3-10 via 1,5‑diaminopentane
notes: as for B1
B3: (i+7)D (peptide)
peptide: Ac-RAGPLEWLAEKYEG
modifications: linker 6-13 via 1,5‑diaminopentane
notes: as for B1
B4: (i+7)A (peptide)
peptide: Ac-CRAGPLQELCEKYAE
modifications: disulfide 1-10 (inferred); linker 8-15 via 1,5‑diaminopentane
notes: W8 and G15 replaced by the cross-linking Glu residues, F14 replaced by Ala; also called locked-helix variant of bp1-01
B5: (i+8)C (peptide)
peptide: Ac-RAGPLEWLAEKYFE
modifications: linker 6-14 via 1,5‑diaminopentane
notes: as for B1
B6: (i+8)B (peptide)
peptide: Ac-RPLEWLAEKYFE
modifications: linker 4-12 via 1,5‑diaminopentane
notes: as for B1
B7: bp1-625 (peptide)
peptide: GQQSCAAGPLQWLCEHYFSTYGR
modifications: disulfide 5-14
notes: bp1-40 with R2A, K12H and an added C-terminal GlyArg
B8: bp1-23 (peptide)
peptide: CRAGPLQ[1Nal]LCEKYF
modifications: disulfide 1-10
notes: also called W8(Nal(1)) variant of bp1-16

Target: T1, IGFBP-1
Test: BIAcore inhibition of the interaction of IGFBP-1 with IGF-1
Protocol: Peptides were assayed in a BIAcore1 assay as described in WO 98/45427, supra.

Fold potency reduction vs bp1-01 | Binder
> 360 fold | B1
20 fold | B2
7.7 fold | B3
40 fold | B4
5.9 fold | B5
7.7 fold | B6

Target: T1, IGFBP-1
Test: BIAcore inhibition of the interaction of IGFBP-1 with IGF-1; reference peptide

Fold potency reduction IC50(bp1-01)/IC50(mut) | Binder
1 fold | CRAGPLQWLCEKYFG (disulfide 1-10) [bp1-01]

Target: T1, IGFBP-1
Test: ELISA or BIAcore inhibition of IGFBP-1 binding to IGF-I; reference peptide

Fold potency reduction IC50(mut)/IC50(bp1-16) | Binder
1 fold | CRAGPLQWLCEKYF (disulfide 1-10, Synthetic peptide) [bp1-16]

Target: T1, IGFBP-1
Test: BIAcore inhibition assay, 9-10 nM IGFBP-1, immobilized IGF-1

fold improved potency over bp1-01 | Binder
~20 fold | B7

Target: T1, IGFBP-1
Test: ELISA inhibition of IGFBP-1 binding to IGF-I

Fold potency reduction IC50(mut)/IC50(bp1-16) | Binder
6.9 fold | CRAGP[Nle]QWLCEKYF (disulfide 1-10, also called L6(Nle) variant of bp1-16) [bp1-36]
2 fold | CRAGRLQWLCEKYF (disulfide 1-10, also called P5R variant of bp1-16) [bp1-31]
> 1000 fold | CRAGPRQWLCEKYF (disulfide 1-10, also called L6R variant of bp1-16) [bp1-32]
50 fold | CRAAPLQWLCEKYF (disulfide 1-10, also called G4A variant of bp1-16) [bp1-29]
> 570 fold | CRAGPLQWRCEKYF (disulfide 1-10, also called L9R variant of bp1-16) [bp1-26]
3.1 fold | CRAGNLQWLCEKYF (disulfide 1-10, also called P5N variant of bp1-16) [bp1-34]
7.5 fold | CRAGPLQHLCEKYF (disulfide 1-10, also called W8H variant of bp1-16) [bp1-24]
1.5 fold | CRAGALQWLCEKYF (disulfide 1-10, also called P5A variant of bp1-16) [bp1-30]
1.7 fold | CRAGPLQW[Nle]CEKYF (disulfide 1-10, also called L9(Nle) variant of bp1-16) [bp1-37]

Target: T1, IGFBP-1
Test: BIAcore inhibition of IGFBP-1 binding to IGF-I

Fold potency reduction IC50(mut)/IC50(bp1-16) | Binder
3.3 fold | CRAGPLQRLCEKYF (disulfide 1-10, also called W8R variant of bp1-16) [bp1-22]
4.8 fold | B8
